The values below come from US20240084003A1 (SIMCERE ZAIMING PHARMACEUTICAL, published 2024).

The EC50 (read off the curve) is the concentration needed to bring the measured effect to its halfway point.

Numbering of substitutions follows the chain as printed.

First the molecules themselves.
T1: monkey CD22 (full length, on HEK293T cells) (monkey)
T1 construct: NCBI XP_014979161.2; also called HEK293T-monkey CD22; HEK293T cells overexpressing monkey CD22
T1 chain: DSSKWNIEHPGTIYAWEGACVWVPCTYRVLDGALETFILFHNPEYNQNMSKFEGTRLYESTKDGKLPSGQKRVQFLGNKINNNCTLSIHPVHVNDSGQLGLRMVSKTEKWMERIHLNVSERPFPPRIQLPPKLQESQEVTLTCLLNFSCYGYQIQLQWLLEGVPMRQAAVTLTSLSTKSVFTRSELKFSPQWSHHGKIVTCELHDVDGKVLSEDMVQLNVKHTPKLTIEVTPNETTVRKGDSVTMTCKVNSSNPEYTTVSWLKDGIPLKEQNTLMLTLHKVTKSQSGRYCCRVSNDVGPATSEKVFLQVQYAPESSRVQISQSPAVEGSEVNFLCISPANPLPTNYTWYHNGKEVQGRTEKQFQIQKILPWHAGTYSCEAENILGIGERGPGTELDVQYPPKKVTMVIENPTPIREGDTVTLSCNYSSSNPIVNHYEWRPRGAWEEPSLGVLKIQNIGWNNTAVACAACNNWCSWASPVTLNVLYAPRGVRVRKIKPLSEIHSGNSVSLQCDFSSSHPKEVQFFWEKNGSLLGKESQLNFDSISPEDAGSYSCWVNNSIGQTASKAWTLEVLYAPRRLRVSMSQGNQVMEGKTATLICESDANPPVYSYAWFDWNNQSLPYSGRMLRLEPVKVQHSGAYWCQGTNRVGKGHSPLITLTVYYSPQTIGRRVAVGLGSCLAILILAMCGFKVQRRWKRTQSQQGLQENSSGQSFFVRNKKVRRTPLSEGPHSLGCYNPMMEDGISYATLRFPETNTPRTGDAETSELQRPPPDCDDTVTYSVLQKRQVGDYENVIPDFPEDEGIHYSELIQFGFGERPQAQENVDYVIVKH

T2: human CD22 domain5-7-His (human, UniProt P20273 414-687)
T2 construct: also called hCD22 domain5-7-His; not shown: His tag
T2 sequence: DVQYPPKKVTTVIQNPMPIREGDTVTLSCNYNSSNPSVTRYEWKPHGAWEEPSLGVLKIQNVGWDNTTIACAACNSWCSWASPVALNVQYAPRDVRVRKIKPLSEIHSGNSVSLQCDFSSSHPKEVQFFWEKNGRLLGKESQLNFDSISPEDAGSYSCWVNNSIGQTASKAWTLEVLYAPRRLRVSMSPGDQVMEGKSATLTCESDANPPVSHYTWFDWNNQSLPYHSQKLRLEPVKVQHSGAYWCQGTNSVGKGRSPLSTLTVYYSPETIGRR

B1: F1.280.1 (antibody, human IgG1, kappa, V domains shown)
VH: QIQLVQSGPELKKPGETVKISCKASGYTFTTYGMSWVKQTPGKGLTWMGWINTDSGVPTYADDFKRRFAFSLEASATTAYLQINNLKNEDTATYFCARGGPDYWGQGTTLTVSS
VL: DILLTQSPATLSVTPGETVSLSCRASQSIYKNLHWYHQKSHRSPRLLIKYASDSISGIPSRFTGSGSGTNFTLSINSVKPEDEGIYYCLQGYIVPLTFGAGTKLELKR
notes: Human-murine chimeric IgG1, kappa
B2: F2.343.16 (antibody, human IgG1, lambda, V domains shown)
VH: QVQLKQSGPGLVQPSQSLSITCTVSGFSLTGYGVQWVRQSPGKGLEWLGVIWGGGGTDYNAAFISRLNIIKDNSKSQVFFKMNSLQADDTAIYYCARYSKYGHFDVWGTGTAVTVSS
VL: QAVVTQESALTTSPGETVTLTCRSSTGAVTTSNYANWVQEKPDHLFTGLIGGTYNRVPGVPARFSGSLIGDKAALTITGAQTEDEAIYFCALWYSNHFWVFGGGTKLTVLG
notes: Human-murine chimeric IgG1, lambda
B3: F1.257.3 (antibody, human IgG1, kappa, V domains shown)
VH: QVQLQQSGPELARPGASVKLSCKASGYTFTSYGISWVKQRTGQDLEWIGEIYPKLGTTYYNEKFKDKATLTTDRSSSTAYMALRSLTSEDSAVYFCACPHYYATRGGDYWGQGTTLTVSS
VL: EIVLTQSPATLSVTPGDSVTFSCRASQSISNHLHWYQQKSHESPRLLIRYASQSISGIPSRFSGSGSGTDFTLSLSSVETEDFGVYFCQQSHSWPYTFGGGTKLEIAR
notes: as for B1
B4: F1.60.9 (antibody, human IgG1, kappa, V domains shown)
VH: QVQLKESGPGLVAPSQSLSITCTVSGLSLNNYGVSWVRQPPGKGLEWLGVIWGDGSTNYHSALISRLSISKDNSKSQVFLKLNSLHTDDTATYYCAINWGDYWGQGTTLIVSS
VL: DIKMTQSPSSMNASLGERVTITCKASQDINSYLSWFQQKPGKSPKILIYRANRLIDGVPSRFSGSGSGQDYSLTISSLEYEDMGIYYCLQYGVFPLTFGAGTKLELKR
notes: as for B1
B5: F2.70.2 (antibody, human IgG1, lambda, V domains shown)
VH: EVQLVESGGGLVKPGGSLKLSCAASGFTFSDYGMNWFRQAPEKGLEWVAYISRGSHTIYYADTVKGRFTISRDNAKNTLFLQMTSLRSNDTAMYYCVRMAGYYAMDYWGQGTSVTVSS
VL: QLVLTQSSSASFSLGASAKLTCTLSSQHSSYIIEWYQQQPLKPPKYVMELKKDGSHSTGDGIPDRFSGSSSGADRYLSISNIQPEDEAIYICGVGDTIKEQFVYVFGGGTKVTVLG
notes: as for B2
B6: F2.104.10 (antibody, human IgG1, lambda, V domains shown)
VH: B5 VH with L11F, K76E, V114L
VL: B5 VL with L50V, P84S
notes: as for B2
B7: F1.245.2 (antibody, human IgG1, kappa, V domains shown)
VH: EVQLQQSGAELVKPGASVKLSCTGSGFNIKDYYIHWVKQRTEQGLEWMGRIDPEDGETEYAPKFQDEATITSDTSSNTAYLQLSSLTYEDTAVYYCAREAAGYFYRGSSYGYFDVWGTGTTVTVSS
VL: DFQMTQTTSFLSASLGDRVTISCSASQDISNYLNWYQQKPDGTVKLLIYYTSSLHSGVPSRFSGSGSGTDYSLTISNLEPEDIATYYCQQYSMLPYTFGGGTKLEMER
notes: as for B1
B8: F2.180.16 (antibody, human IgG1, lambda, V domains shown)
VH: EVKLVESGGGLVLPGGSLKISCAASGFTFSDYYMYWIRQTPDKRLEWVAYISNTGYSTFYPDSVKGRFTVSRDNAKNTLYLQMSRLQSEDTAMYYCARHGILYAMDYWGQGTSVTVSS
VL: B5 VL with L2P, H28Y, S30T, I32T, E34G, K52H, H56R, S57H, I89T, V103M
notes: as for B2

For one assay, the target named is T1, monkey CD22 (full length, on HEK293T …). Briefly: FACS on HEK293T-monkey CD22 cells. The text has this: The required cells were scale-up cultured in a T-75 cell culture flask to the logarithmic growth phase. For the adherent cell CHO-K1, the medium was aspirated, the cells were washed 2 times with PBS buffer, and then digested with trypsin. After the digestion was terminated, the cells were washed 2 times with PBS buffer. For suspension cell Raji, the medium supernatant was directly centrifuged and discarded, and the cell pellet was washed 2 times with PBS. After counting the cells in the previous step, the cell pellet was resuspended with [PBS+2% (w/w) BSA] blocking solution to 2×10⁶ cells/ml, and added to a 96-well FACS reaction plate at 50 μl/well, and then the chimeric antibody test sample was added at 50 μl/well, and incubated on ice for 2 hours. The mixture was centrifuged and washed 3 times with PBS buffer, Alexa Flour 488-labeled secondary antibody (purchased from Invitrogen, catalog number: A-11013) was added at 50 μl/well, and incubated on ice for 1 hour. The obtained mixture was centrifuged and washed 5 times with PBS, and FACS (FACS Canto™, purchased from BD Company) was used for detection and result analysis. Data analysis was performed by software (CellQuest) to obtain the mean fluorescence density (MFI)of the cells. And then software (GraphPad Prism8) was used for analysis, data fitting, and EC50 value calculation. […]
B1: the binding result is given as “no binding”. Take B2: the binding result is listed as “no binding”.

A further assay concerns the target T2, human CD22 domain5-7-His. Briefly: ELISA, human CD22 domain5-7-His coated. On the technique in general: ELISA stands for enzyme-linked immunosorbent assay.
In the case of B3, the binding result is given as “no binding (tested: 100 nM)”.

For B4, the “EC50 (read off the curve)” value is about 0.1 nM. As for B1, the binding result is given as “no binding (tested: 100 nM)”. As for B5, the binding result is recorded as “no binding (tested: 100 nM)”.

On to B6, for which the binding result is on record as “no binding (tested: 100 nM)”. Still for that read-out and setting: for B2 the value was “no binding (tested: 100 nM)”. Still for that read-out and setting: as for B7, the entry is “no binding (tested: 100 nM)”.

Another assay concerns the target T1, monkey CD22 (full length, on HEK293T …). Put plainly: FACS, HEK293T-monkey CD22 cells (293T as parent cells). The text has this: The required cells were scale-up cultured in a T-75 cell culture flask to the logarithmic growth phase. For the adherent cell CHO-K1, the medium was aspirated, the cells were washed 2 times with PBS buffer, and then digested with trypsin. After the digestion was terminated, the cells were washed 2 times with PBS buffer. For suspension cell Raji, the medium supernatant was directly centrifuged and discarded, and the cell pellet was washed 2 times with PBS. After counting the cells in the previous step, the cell pellet was resuspended with [PBS+2% (w/w) BSA] blocking solution to 2×10⁶ cells/ml, and added to a 96-well FACS reaction plate at 50 μl/well, and then the chimeric antibody test sample was added at 50 μl/well, and incubated on ice for 2 hours. The mixture was centrifuged and washed 3 times with PBS buffer, Alexa Flour 488-labeled secondary antibody (purchased from Invitrogen, catalog number: A-11013) was added at 50 μl/well, and incubated on ice for 1 hour. The obtained mixture was centrifuged and washed 5 times with PBS, and FACS (FACS Canto™, purchased from BD Company) was used for detection and result analysis. Data analysis was performed by software (CellQuest) to obtain the mean fluorescence density (MFI)of the cells. And then software (GraphPad Prism8) was used for analysis, data fitting, and EC50 value calculation. […] The same method was used to detect the binding of the chimeric antibodies to endogenous CD22-negative cell MoLT4 cells (purchased from ATCC, CRL-1582) and CHO-K1 cells.
HEK293T-monkey CD22 cells were subjected to FACS detection and data analysis according to the method in Example 5.2.
Consider B3, for which the binding result is given as “no binding (tested: 10 nM)”. Still for that read-out and setting: for B4 the value was “no binding (tested: 10 nM)”. Still for that read-out and setting: as for B5, the entry is “no binding (tested: 10 nM)”; as for B8, “no binding (tested: 10 nM)”; as for B6, “no binding (tested: 10 nM)”. The same measure, in the same setting: as for B7, the entry is “no binding (tested: 10 nM)”.
